Publication PMC8199036, “Improved Tumor-Targeting with Peptidomimetic Analogs of Minigastrin ^177Lu-PP-F11N” (Cancers, 2021)
Read-outs that look alike come from different tables or passages of the source. Residues, ends and D or L forms follow the SMILES beside them.

Experiments:
[1] = biodistribution in mice with CCK2R-positive xenografts; type: in vivo, female CD1-nu mice; conditions: female, CD1-nu, mouse, total radioactivity; for tissue uptake at 4 h / tissue uptake at 24 h / tissue uptake at 1 h: in vivo
Procedure: (§1) Procedures for biodistribution studies with ^177Lu-labeled conjugates (10 pmol, 100 µL, 0.1 µM in PBS, 0.5 MBq, 1 µg/kg) in female CD1-nu mice with xenografts of A431-CCK2R cells at 1, 4, and 24 h p.i., as well as blocking experiments at 4 h p.i. with a 6000-fold excess of minigastrin have been reported previously and were followed without modifications. Statistical analysis was performed via GraphPad Prism using two-sided analysis of variance. n = 4 animals per group.

[2] = tested on: xenografts of A431-CCK2R cells; test: as above; type: in vivo, female CD1-nu mice
Procedure: as §1

[3] = 10 pmol, Stomach (CCK2R-positive) uptake
[4] = 10 pmol, Tumor (CCK2R-positive) uptake
[5] = tumor / blood, 10 pmol, read-out: Tumor-to-Blood ratio
[6] = tumor / kidneys, 10 pmol, read-out: Tumor-to-Kidneys ratio
[7] = tumor / muscle, 10 pmol, read-out: Tumor-to-Muscle ratio
[8] = tumor / stomach, 10 pmol, read-out: Tumor-to-Stomach ratio
[9] = female, CD1-nu, mouse, in vivo, 10 pmol, 4 h

`CCCC[C@H](NC(=O)[C@H](Cc1c[nH]c2ccccc12)NC(=O)Cn1cc([C@H](Cc2ccc(O)cc2)NC(=O)[C@H](C)NC(=O)[C@@H](CCC(=O)O)NC(=O)[C@@H](CCC(=O)O)NC(=O)[C@@H](CCC(=O)O)NC(=O)[C@@H](CCC(=O)O)NC(=O)[C@@H](CCC(=O)O)NC(=O)[C@@H](CCC(=O)O)NC(=O)CN2CCN(CC(=O)O)CCN(CC(=O)O)CCN(CC(=O)O)CC2)nn1)C(=O)N[C@@H](CC(=O)O)C(=O)N[C@@H](Cc1ccccc1)C(N)=O` [NMG 2, DOTA-(DGlu)6-Ala-Tyr-Ψ[Tz]-Gly-Trp-Nle-Asp-Phe-NH2] (HELM PEPTIDE1{[O=C(O)CN1CCN(CC(=O)O)CCN(CC(=O)[*:2])CCN(CC(=O)O)CC1].[dE].[dE].[dE].[dE].[dE].[dE].A.[O=C(Cn1cc([C@H](Cc2ccc(O)cc2)N[*:1])nn1)[*:2]].W.[Nle].D.F.[am]}$$$$V2.0) showed a tissue uptake at 4 h ([1]; 10 pmol, Blood uptake) of 0.01 %ID/g, a tissue uptake at 24 h ([1]; 10 pmol, Blood uptake) of under 0.01 %ID/g and a tissue uptake at 1 h ([1]; 10 pmol, Bone uptake) of 0.29 %ID/g. For the same compound, the tissue uptake at 4 h ([1]; 10 pmol, Bone uptake) was 0.1 %ID/g, the tissue uptake at 24 h ([1]; 10 pmol, Bone uptake) was 0.07 %ID/g and the tissue uptake at 1 h ([1]; 10 pmol, Heart uptake) was 0.07 %ID/g. The tissue uptake at 4 h ([1]; 10 pmol, Heart uptake) was 0.02 %ID/g, the tissue uptake at 24 h ([1]; 10 pmol, Heart uptake) was 0.01 %ID/g and the tissue uptake at 1 h ([1]; 10 pmol, Intestines uptake) was 0.15 %ID/g. The tissue uptake at 4 h ([1]; 10 pmol, Intestines uptake) was 0.07 %ID/g, the tissue uptake at 24 h ([1]; 10 pmol, Intestines uptake) was 0.06 %ID/g and the tissue uptake at 1 h ([1]; 10 pmol, Kidneys uptake) was 2.19 %ID/g. It also gave a tissue uptake at 4 h ([1]; 10 pmol, Kidneys uptake) of 2.07 %ID/g, a tissue uptake at 24 h ([1]; 10 pmol, Kidneys uptake) of 1.33 %ID/g and a tissue uptake at 1 h ([1]; 10 pmol, Liver uptake) of 0.11 %ID/g. It also gave a tissue uptake at 4 h ([1]; 10 pmol, Liver uptake) of 0.05 %ID/g, a tissue uptake at 24 h ([1]; 10 pmol, Liver uptake) of 0.03 %ID/g and a tissue uptake at 1 h ([1]; 10 pmol, Lung uptake) of 0.18 %ID/g. It also gave a tissue uptake at 4 h ([1]; 10 pmol, Lung uptake) of 0.04 %ID/g, a tissue uptake at 24 h ([1]; 10 pmol, Lung uptake) of 0.02 %ID/g and a tissue uptake at 1 h ([1]; 10 pmol, Muscle uptake) of 0.05 %ID/g. For the same compound, the tissue uptake at 4 h ([1]; 10 pmol, Muscle uptake) was 0.01 %ID/g, the tissue uptake at 24 h ([1]; 10 pmol, Muscle uptake) was 0.01 %ID/g and the tissue uptake at 1 h ([1]; 10 pmol, Pancreas uptake) was 0.33 %ID/g. It also gave a tissue uptake at 4 h ([1]; 10 pmol, Pancreas uptake) of 0.28 %ID/g, a tissue uptake at 24 h ([1]; 10 pmol, Pancreas uptake) of 0.17 %ID/g and a tissue uptake at 1 h ([1]; 10 pmol, Spleen uptake) of 0.06 %ID/g. It also gave a tissue uptake at 4 h ([1]; 10 pmol, Spleen uptake) of 0.03 %ID/g, a tissue uptake at 24 h ([1]; 10 pmol, Spleen uptake) of 0.02 %ID/g and a tissue uptake at 1 h [1, 3] of 2.85 %ID/g. It also gave a tissue uptake at 4 h [1, 3] of 2.66 %ID/g, a tissue uptake at 24 h [1, 3] of 1.63 %ID/g and a tissue uptake at 1 h [1, 4] of 5.94 %ID/g. For the same compound, the tissue uptake at 4 h [1, 4] was 7.15 %ID/g, the tissue uptake at 24 h [1, 4] was 4.73 %ID/g and the tissue uptake at 4 h ([1]; Blood uptake) was 0.01 %ID/g. For the same compound, the tissue uptake at 4 h ([1]; Heart uptake) was 0.02 %ID/g, the tissue uptake at 4 h ([1]; Intestines uptake) was 0.1 %ID/g and the tissue uptake at 4 h ([1]; Kidneys uptake) was 2.24 %ID/g. For the same compound, the tissue uptake at 4 h ([1]; Liver uptake) was 0.06 %ID/g, the tissue uptake at 4 h ([1]; Lung uptake) was 0.04 %ID/g and the tissue uptake at 4 h ([1]; Pancreas uptake) was 0.06 %ID/g. For the same compound, the tissue uptake at 4 h ([1]; Spleen uptake) was 0.03 %ID/g, the tissue uptake at 4 h ([1]; Stomach (CCK2R-positive) uptake) was 0.46 %ID/g and the tissue uptake at 4 h ([1]; Tumor (CCK2R-positive) uptake) was 2.54 %ID/g. For the same compound, the tissue to tissue ratio at 1 h [1, 5] was 31.1 ± 10.3, the tissue to tissue ratio at 4 h [1, 5] was 715 ± 133 and the tissue to tissue ratio at 24 h [1, 5] was 4260 ± 1690. For the same compound, the tissue to tissue ratio at 1 h [1, 6] was 2.76 ± 0.79, the tissue to tissue ratio at 4 h [1, 6] was 3.5 ± 0.54 and the tissue to tissue ratio at 24 h [1, 6] was 3.78 ± 1.48. The tissue to tissue ratio at 1 h [1, 7] was 124 ± 42.1, the tissue to tissue ratio at 4 h [1, 7] was 715 ± 133 and the tissue to tissue ratio at 24 h [1, 7] was 441 ± 73.7. The tissue to tissue ratio at 1 h [1, 8] was 2.68 ± 1.57, the tissue to tissue ratio at 4 h [1, 8] was 3.08 ± 1.1 and the tissue to tissue ratio at 24 h [1, 8] was 3.13 ± 1.28. For the same compound, the “Tumor washout: tumor uptake relative to 1h” value ([2]; 4 h) was 120%, the “Tumor washout: tumor uptake relative to 1h” value ([2]; 24 h) was 80% and the Bone uptake [2, 9] was 0.09 % i.A./g. For the same compound, the Muscle uptake [2, 9] was 0.02 % i.A./g.
